Target: T1, P3L (nucleolin RRM2-derived peptide) (UniProt P19338)
T1 sequence: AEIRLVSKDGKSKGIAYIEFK
Experiment: ITC
Details: 20 mM MOPS pH 7.0, 300 mM NaCl, 25 C

Substance | Kd (unit inferred, uM from context) [µM] | also measured
SCA2CAG22 RNA (unexpanded) | – | Kd (unexpanded repeat): 17.3 µM
SCA2CAG42 RNA | 5.6 | –
SCA2CAG55 RNA | 4.83 | –
SCA2CAG72 RNA | – | Kd (one-site model, CD also showed structural change on RNA addition (FIG. 2)): 0.66 µM

Reference: patent US20170233442
